This assay addresses T1, streptavidin (UniProt P22629 25-183).
T1 construct: streptavidin; Commercial streptavidin is usually a homotetramer of a processed (core) form; also called SA; source: bought: Wako Pure Chemical Industries (ELISA)
Kind of assay: fluorescence polarisation; 4 pmol FAM-labelled peptide with various concentrations of the protein; 50 mM Tris-HCl pH 8.0, 150 mM NaCl, 1 mM TCEP-NaOH, 30 °C; Klotz plot, non-linear least squares fit. Conditions: both partners purified. A general note: Fluorescence polarisation rises when a labelled molecule tumbles more slowly, as on binding a larger partner.

5/6‑FAM = 5/6-carboxyfluorescein

T1 sequence (P22629 25-183): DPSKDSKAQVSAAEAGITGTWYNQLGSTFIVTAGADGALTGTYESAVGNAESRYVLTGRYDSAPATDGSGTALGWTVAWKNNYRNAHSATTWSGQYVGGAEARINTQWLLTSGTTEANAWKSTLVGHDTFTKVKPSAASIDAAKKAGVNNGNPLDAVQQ

B1: Sal-conjugated fluorescent peptide possessing the sequence of clone 7 (K-5/6-FAM-A-M-W-C*-Q-Y-H-P-Q-N-C*-Y-K-M-NH2) (peptide)
peptide: KAMWCQYHPQNCYKM
modifications: 5/6-FAM on the N-terminal lysine (K-5/6-FAM); Sal-conjugated Cys (C*) at both cysteines; C-terminal amide (NH2)
notes: Linear peptide; both cysteines are alkylated with 4-acetamidosalicylic acid (thioether); also called Sal-conjugated peptide; Sal-conjugated linear peptide; source: synthetic peptide (solid phase synthesis, HPLC), then conjugated with Sal-IA and purified by reverse-phase HPLC
As to B1, the Kd (as a rule, the equilibrium constant for the complex coming apart) was 180 nM. That is a sub-micromolar value.

B2: mock (Sal-unconjugated) fluorescent peptide (H2N-K-5/6-FAM-A-M-W-C-Q-Y-H-P-Q-N-C-Y-K-M-NH2) (peptide)
peptide: H-K(5/6‑FAM)AMWCQYHPQNCYKM-NH2
modifications: cysteine pairing not given here
notes: cysteines not alkylated; Assayed under reducing conditions (1 mM TCEP), so the cysteines are free thiols; also called mock peptide; unmodified fluorescent peptide; source: synthetic peptide (solid phase synthesis, reverse-phase HPLC)
For the molecule B2, the “fold lower affinity than the Sal-conjugated peptide” value was ~10 fold.

The values above are taken from article PMC6271298, “Pharmacophore Generation from a Drug-like Core Molecule Surrounded by a Library Peptide via the 10BASEd-T on Bacteriophage T7” (Molecules, 2014).
